In paper PMC7055321:
Values joined by “and” are separate entries in the source; they are usually repeats but may differ in a detail not shown here. Equal values may be shown once.

Molecular target: ACE (angiotensin-I converting enzyme) from rabbit lung (rabbit) (UniProt P12822)
UniProt P12822, sequence (P12822 34-1310): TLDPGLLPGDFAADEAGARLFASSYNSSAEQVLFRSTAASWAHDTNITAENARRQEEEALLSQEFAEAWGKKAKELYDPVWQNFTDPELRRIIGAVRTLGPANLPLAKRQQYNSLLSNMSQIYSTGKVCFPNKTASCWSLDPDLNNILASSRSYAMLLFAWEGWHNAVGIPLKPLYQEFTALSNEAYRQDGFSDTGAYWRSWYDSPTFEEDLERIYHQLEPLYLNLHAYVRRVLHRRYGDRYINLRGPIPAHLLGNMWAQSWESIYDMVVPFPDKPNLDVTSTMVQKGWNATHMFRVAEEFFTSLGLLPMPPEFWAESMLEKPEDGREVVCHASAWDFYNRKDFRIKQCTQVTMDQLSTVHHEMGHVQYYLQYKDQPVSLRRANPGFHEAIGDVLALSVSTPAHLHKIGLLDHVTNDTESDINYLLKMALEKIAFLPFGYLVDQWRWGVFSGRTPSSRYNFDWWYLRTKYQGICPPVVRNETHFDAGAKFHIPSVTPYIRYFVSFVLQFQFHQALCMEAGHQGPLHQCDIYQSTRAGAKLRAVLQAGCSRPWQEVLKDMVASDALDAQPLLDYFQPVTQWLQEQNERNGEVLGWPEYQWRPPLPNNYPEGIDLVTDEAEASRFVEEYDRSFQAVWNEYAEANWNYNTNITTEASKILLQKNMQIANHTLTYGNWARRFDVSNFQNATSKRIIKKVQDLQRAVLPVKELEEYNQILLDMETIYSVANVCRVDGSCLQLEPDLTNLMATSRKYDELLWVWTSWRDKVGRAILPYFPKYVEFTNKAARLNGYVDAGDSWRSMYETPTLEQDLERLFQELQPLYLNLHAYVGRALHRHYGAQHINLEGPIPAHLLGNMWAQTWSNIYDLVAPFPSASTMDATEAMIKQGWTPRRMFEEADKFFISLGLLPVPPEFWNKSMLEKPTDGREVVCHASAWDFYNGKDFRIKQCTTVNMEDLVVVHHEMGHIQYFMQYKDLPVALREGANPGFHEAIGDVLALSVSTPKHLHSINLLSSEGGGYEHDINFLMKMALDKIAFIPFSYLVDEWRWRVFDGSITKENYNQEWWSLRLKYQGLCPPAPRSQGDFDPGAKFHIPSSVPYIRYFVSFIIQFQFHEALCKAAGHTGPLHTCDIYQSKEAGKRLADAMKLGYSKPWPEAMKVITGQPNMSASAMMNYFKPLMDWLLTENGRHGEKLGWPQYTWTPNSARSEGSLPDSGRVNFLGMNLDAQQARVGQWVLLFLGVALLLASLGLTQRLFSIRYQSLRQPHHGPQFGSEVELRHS

ACE inhibition (FAPGG hydrolysis, absorbance at 340 nm), IC50: 0.06 mg/ml and 0.144 mM
Substance: IER tripeptide
